The target in assay [1] is human transferrin receptor 2 (human) (UniProt Q9UP52). The assay is described as follows: ELISA on human TfR2, RFU.
In assay [2] the target is human transferrin receptor 1 (human) (UniProt P02786). The assay is described as follows: Carterra LSA at 25C, IgG captured on anti-IgG lawn, hTfR1 injected, 1:1 Langmuir fit.
Chain of human transferrin receptor 1 (human) (P02786 89-760 limits assumed): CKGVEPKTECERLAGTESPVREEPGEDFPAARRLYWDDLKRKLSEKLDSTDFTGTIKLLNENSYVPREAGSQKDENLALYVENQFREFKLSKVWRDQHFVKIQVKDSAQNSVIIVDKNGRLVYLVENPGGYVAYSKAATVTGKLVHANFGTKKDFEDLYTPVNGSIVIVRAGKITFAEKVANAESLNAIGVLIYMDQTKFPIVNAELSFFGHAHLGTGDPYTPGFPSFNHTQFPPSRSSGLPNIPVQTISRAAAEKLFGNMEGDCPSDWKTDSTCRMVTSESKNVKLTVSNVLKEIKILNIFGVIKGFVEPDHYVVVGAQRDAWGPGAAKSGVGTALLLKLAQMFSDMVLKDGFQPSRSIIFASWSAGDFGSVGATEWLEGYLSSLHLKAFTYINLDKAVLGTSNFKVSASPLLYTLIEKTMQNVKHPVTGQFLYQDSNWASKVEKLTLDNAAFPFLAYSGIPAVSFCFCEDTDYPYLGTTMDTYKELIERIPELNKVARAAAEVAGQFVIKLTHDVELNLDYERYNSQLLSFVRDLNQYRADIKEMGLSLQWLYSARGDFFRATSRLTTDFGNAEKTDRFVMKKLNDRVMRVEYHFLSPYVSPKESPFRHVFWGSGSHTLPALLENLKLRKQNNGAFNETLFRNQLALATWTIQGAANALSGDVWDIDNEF

Chain of human transferrin receptor 2 (human) (Q9UP52 105-801 limits assumed): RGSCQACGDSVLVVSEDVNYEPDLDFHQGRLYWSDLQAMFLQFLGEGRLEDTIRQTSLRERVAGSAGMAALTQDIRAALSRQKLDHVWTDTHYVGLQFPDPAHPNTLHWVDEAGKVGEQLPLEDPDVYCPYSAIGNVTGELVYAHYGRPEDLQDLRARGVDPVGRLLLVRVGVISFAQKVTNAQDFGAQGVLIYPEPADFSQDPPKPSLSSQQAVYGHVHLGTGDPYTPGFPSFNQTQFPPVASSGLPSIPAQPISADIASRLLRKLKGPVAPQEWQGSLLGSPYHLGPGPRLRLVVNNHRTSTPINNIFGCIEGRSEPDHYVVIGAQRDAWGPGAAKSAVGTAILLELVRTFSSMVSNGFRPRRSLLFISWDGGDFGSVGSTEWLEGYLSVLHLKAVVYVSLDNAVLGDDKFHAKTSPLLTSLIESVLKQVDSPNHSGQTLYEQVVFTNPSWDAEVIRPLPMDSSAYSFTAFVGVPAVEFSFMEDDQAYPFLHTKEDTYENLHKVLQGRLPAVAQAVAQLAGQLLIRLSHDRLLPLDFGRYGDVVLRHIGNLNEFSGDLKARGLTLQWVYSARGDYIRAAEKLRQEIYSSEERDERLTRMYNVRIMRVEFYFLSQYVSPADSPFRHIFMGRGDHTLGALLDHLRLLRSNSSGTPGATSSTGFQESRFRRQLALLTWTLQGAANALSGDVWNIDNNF

TfR2 Monoclonal Antibody (OTI1B1) registered an EC50 (read off the curve) in assay [1] of 2 nM.

In assay [2], OKT9 mIgG (antibody) showed a Kd of 0.536 nM and a kon of 774000 M⁻¹ s⁻¹.

The term EC50 (read off the curve) denotes the concentration giving half of the maximal effect. The low end stands for an effect from little substance, the high end for a need for much substance. A word on the Kd: it is the equilibrium constant for the complex coming apart. Low readings indicate a tighter complex, high ones a looser complex. As a reminder, the kon is a measure of how fast the partners come together.

The values are drawn from patent US20230111212A1, “MUSCLE TARGETING COMPLEXES AND USES THEREOF FOR TREATING DYSTROPHINOPATHIES” (Dyne Therapeutics, Inc., priority 2020, published 2023).
